System: MS2 coat protein
Experiment: apparent KD of MS2 coat protein; higher = weaker reporter binding
Details: Eterna round: R107
How it was run: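 Values are apparent KD, taken as the median for each design of fits to normalised binding curves from individual clusters. The designed RNA switches were transcribed on-chip from Illumina sequencing clusters and exposed to SNAP-549-labelled MS2 coat protein at twofold increasing amounts from 0.7 or 1.5 nM to 3 µM. Titration used 100 mM Tris-HCl pH 7.5, 80 mM KCl and 4 mM MgCl2, without or with constant ligand.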

[1] = input ligand: theophylline 20 uM
[2] = input ligand: tryptophan 2.4 mM
[3] = input ligand: theophylline 2 mM

Sequence | apparent KD of MS2 coat protein (input ligand: arginine 13.2 mM) | apparent KD of MS2 coat protein [1] | apparent KD of MS2 coat protein [2] | apparent KD of MS2 coat protein (input ligand: none) | apparent KD of MS2 coat protein [3]
ACUUUGUCGGGUGAUACCAGCCUCGGCACAUCUCGUGCCGAACAUGAGGAUCACCCAUGUGGCCCUUGGCAGCACAUGACAAAUC [Isredior] | 0.0701 µM | 0.522 µM | 0.423 µM |  | 
AAAGGACAUGAGGAUCACCCAUGUCUCGAUACCAGCCGAUCAUCAGGCCCUUGGCAGCGAGACAAGGGUCAUGGAUCGCGGUUCU [Beerusmage] | 0.0117 µM | 0.0174 µM | 0.0139 µM | 0.0114 µM | 0.0123 µM
AUGCAGAGCACGGCCGCCACUCCAUGUAUACAUGAGGAUCACCCAUGUAAUUUGUAUUUUUUAUAGAGGACCGGGUGAAAUGCAA [JR_SSTryptoB_Sub011] | 0.0414 µM | 0.0341 µM |  |  | 0.0362 µM
GAUAACAUGAGGAUCACCCAUGUGGCGUCGCGAGGACCGGUACGGCCGCCACUCGGCAGUUCAACUCGAAUAUAGUGAUCGAAGU [theeternabot_sameState_MS2_Trp_A_16] | 0.0476 µM | 0.182 µM |  |  | 0.223 µM
AAUAACAUGAGGAUCACCCAUGUAAGUAAACGAGGACCGGUACGGCCGCCACUCGAAUAAAUAAAGUACCGGUAAGAUCCAGGGA [Default title] | 0.0146 µM | 0.019 µM |  |  | 0.0154 µM
AAUAACAUGAGGAUCACCCAUGUAAGUGGGCGAGGACCGGUACGGCCGCCACUCGGAUGAUGUUGACGAAAAGUCAGCAUCAUCA [#OpenEnded 2 #GuTurnoff #Tail] | 0.0259 µM | 0.0313 µM | 0.0551 µM | 0.0247 µM | 0.0341 µM
AAAAUAAAUAAAACGCGUAACAUGAAGGAUACCAGCCAGAAAACUGGCCCUUGGCAGCCUCUACAUGAGGAUCACCCAUGUCGCG [Mat - Same State Theophlline A - Mod of Eli - D15] | 0.161 µM | 0.141 µM | 0.332 µM |  | 
UACCGAUACGGAAGGAGCGUAGAAGUAGUACAUGAGGAUCACCCAUGUAUGGGUAAUUUCGUACAGGUAGGUCGCCGUAUCGGUA [SSAB NP+V+V2 #23] | 0.0233 µM | 0.0383 µM | 0.0355 µM | 0.0318 µM | 0.04 µM
AAAUAAAUCACAUGAGGAUCACCCAUGGAUACCAGGCCUGGAAACAGCCCUUGGCAGCCACAUGAGGAUCACCCAUGUGCUAAAU [MAT - Exclusion Theophlline A - Mod of Eli - D2] | 0.0984 µM | 0.207 µM | 0.14 µM |  | 
UCGUUUUAGUCGGCCGCCACUGGUCUCAUGUUCAACAUGAGGAUCACCCAUGUAUCUUAUUUUAACAGGACCGGGACGUAAUAGA [#16 Exclusion Tryptophan B] | 0.0908 µM | 0.0882 µM |  |  | 0.14 µM
UUGGGUUUGUGAAGGAGCGGGAAUGUUUUAUAGUGGAUCCUAACAUGAGGAUCACCCAUGUCCCAGGUAGGUCGCGCGGGUUUGG [12.S] | 0.0401 µM | 0.1 µM | 0.0555 µM | 0.0648 µM | 0.0799 µM
UGUAUGUGAUCUGAUACCAGAGUUGAUAAUCUGAGGAUCACCCUGGUAAGGCGAAAGCCGCUCCCUUGGCAGCAGAUCGCAUACU | 0.526 µM | 0.969 µM | 0.884 µM | 0.946 µM | 0.244 µM
ACACGAAGCUGAAGGAGCGUGGUACAAGUUUUUACAUGAGGAUCACCCAUGUUUCGUCAAUCACAGGUAGGUCGCAGAUGCGUGA [#08 Same State - Arginine B] | 0.0321 µM | 0.0425 µM | 0.0259 µM | 0.0292 µM | 0.0366 µM
AUAUGAUCAUAUGAUACCAGAAAUGGUAUUCCUUUGUUUCUUACAUGAGGAUCACCCAUGUUCCCUUGGCAGCAUAUGAUCAUAU [ETHB #2] | 0.159 µM | 0.221 µM | 0.238 µM |  | 
ACGUAAAGCAGAAGGAGCGUCUUCAAAUUACAUGAGGAUCACCCAUGUUUUGUGAUCAUAUGACAGGUAGGUCGCUGAAGUACGA [JR_SSArginiB_Sub003] | 0.0583 µM | 0.0975 µM | 0.0665 µM | 0.0717 µM | 0.0864 µM
ACAUGAGGAUCACCCAUGUGCAUCACCCGACGAGGACCGGUACGGCCGCCACUCGGGUAUAUAUUUGCAUCGGGUGAUUUUACGU [#25 Tryptophan A Same State] | 0.0155 µM | 0.0595 µM |  |  | 0.0616 µM
UCGUUUGAGGCGGCCGCCACUGGUCUCAUGGUCAACAUGAGGAUCACCCAUGUAUCUUUGCCAAGCAGGACCGGGCCUCGAGCGA [#20 Exclusion Tryptophan B] | 0.0281 µM | 0.0414 µM | 0.0148 µM | 0.0236 µM | 0.0291 µM
CGAACAUGAGGAUCACCCAUGUUAACCGAAGGAGCGGCGCAUAAGUCAGGUAGGUCGCGGUAGAUGAAAUAGAGCAGUGGUGACA [#01 Same State - Arginine A] | 0.0244 µM | 0.045 µM | 0.027 µM | 0.0317 µM | 0.032 µM
GCUGGGUGCGCAAGGACCUGGCGUUGCGAUACCAGCACGGUAACGUGCCCUUGGCAGCGCACAUGAGGAUCACCCAUGUGGUGUG [#1 Exclusion - Theophylline A Attempt #20 (HarryS)] | 0.0968 µM | 0.333 µM | 0.162 µM | 0.23 µM | 0.301 µM

Sequence | apparent KD of MS2 coat protein (input ligand: arginine 13.2 mM) | apparent KD of MS2 coat protein [1] | apparent KD of MS2 coat protein [2] | apparent KD of MS2 coat protein (input ligand: none) | apparent KD of MS2 coat protein [3]
CUAUAUAUAAGAAGGAGCGUCGAAAAUGGGUAAACAUGAGGAUCACCCAUGUAAAGGGAACGACAGGUAGGUCGCUUAUAUAUAG [AstromonsSSArgB#5] | 0.151 µM | 0.169 µM | 0.206 µM | 0.191 µM | 0.184 µM
UUCUUUGACGAUCUGGGUUUACCAGAUCGACGAGGACCGGUACGGCCGCCACUCGUGUUUUCUUUACAUGAGGAUCACCCAUGUU [#16Tryptophan A Same State] | 0.0162 µM | 0.0226 µM |  |  | 0.0191 µM
GGAUGCCACUAUGGAUAGCACGAUGCCGAUACCAGCUAGGAAACUAGCCCUUGGCAGCGGAACAUGAGGAUCACCCAUGUAUCCU [EThA NP+V+V2 #8] | 0.0213 µM | 0.0305 µM | 0.0216 µM | 0.0242 µM | 0.0427 µM
AGUACUCGAACGGAUACCAGCCGGACAUGAGGAUCACCCAUGUCCUACCAUUGUUCGGUUGGCCCUUGGCAGCCGUUCGUGUACA [Omei Theo B SS A v4] | 0.125 µM | 0.366 µM | 0.591 µM | 0.93 µM | 0.0267 µM
AGUAUACAUUCUGAUACCAGAGACAUGAGGAUCACCCAUGUCCGAUCGUCCUGCCUCAGACUCCCUUGGCAGCAGGAUAUGUGCU [Exclusion Theophylline B GF5] | 0.0162 µM | 0.0218 µM | 0.0166 µM |  | 
UGGCGAGAAGGAAGGAGCGUCAGCUGAGUCACAUGAGGAUCACCCAUGUCGCACAUAGUGUGACAGGUAGGUCGCCUUCUGCCCU [Beinmain] | 0.0849 µM | 0.152 µM | 0.156 µM | 0.134 µM | 0.239 µM
UGUAUGGACUGAAGGAGCGGGUAAUAAACUUGAGGAUCACCCAGGUAAUAGGCGAAAGCCACCCAGGUAGGUCGCAGUCCAUACU | 0.0327 µM | 0.0389 µM | 0.0256 µM | 0.0285 µM | 0.023 µM
AGAAGUCCAGACUACACGUGGAAAAGCGAUACCAGACUCAUAGGUGUCCCUUGGCAGCGCGUAACAUGAGGAUCACCCAUGUGAU [theeternabot_exclusion_MS2_Theo_A_9] | 0.0668 µM | 0.19 µM | 0.133 µM |  | 
GAACAUGAGGAUCACCCAUGUAAAACAGAUACCAGUGAUAUAAUACACCCUUGGCAGCUGAAGCUGAAUAAUAAUUCCCUCAAGC [Same State Theophylline A GF1] | 0.017 µM | 0.02 µM | 0.015 µM |  | 
UCUACAUGAGGAUCACCCAUGUGCCAUGAUACCAGACAUGAAAAUGUCCCUUGGCAGCAUGGGUAGCGCAUCCGAAAGGAUGCGU [#06 SameState-TheophyllineA] | 0.0424 µM | 0.155 µM | 0.0334 µM |  | 
CGGUCGGUCGGCCGGUGAUUAUGGGAUGAAGGAGCGUGGGAAGCUACAGGUAGGUCGCAUCCGAACCAUGAGGAUCACCCAUGGU [SSArg A #23Alt-Ms2 Mod] | 0.0232 µM | 0.0268 µM | 0.0217 µM | 0.0251 µM | 0.0392 µM
AGCUCGCAUCCUCUAGCGUCAAAGACGCGUCGAGGACCGGUACGGCCGCCACUCGACUUGAGGAUCACCCAGGUCAAAGCGAGCA [TrypAX 13 #SwitchBubble #AlternativeMS2 #MS2Late #CuTurnoff] | 0.148 µM | 0.488 µM | 0.138 µM | 0.545 µM | 0.631 µM
GGUGGCUCCAUCGAUACCAGCCACCACCGAUAGACCACAUGAGGAUCACCCAUGUUGGGUGGCCCUUGGCAGCGGUGAAGCUGCC [#1 Same State - Theophylline B Attempt #4 (HarryS)] | 0.0441 µM | 0.416 µM | 0.657 µM | 0.304 µM | 0.0345 µM
UUUUAAAGCAUGGCGUAUCGGAAAACCGAUACCAGUACAGAAAUGUACCCUUGGCAGCGGAAUUUUACAUGAGGAUCACCCAUGU [Ex Theophylline A 1] | 0.0149 µM | 0.0197 µM | 0.0127 µM |  | 
UUCGUUUGCGGAAGGAGCGACGGACAUCGGUGAACGACGGACAUGAGGAUCACCCAUGUACGUCAGGUAGGUCGCCGCUAAGAGU [Enbiceri] | 0.0137 µM | 0.0138 µM | 0.0138 µM | 0.0132 µM | 0.0152 µM
ACACGGAAUGAUGGAUCACCUCGUGAAUCACGAGGACCGGUACGGCCGCCACUCGAAAACCGUGACCUGUACGAAAAGUGCAGGA | 0.322 µM | 0.232 µM | 0.0565 µM | 0.0897 µM | 0.25 µM
ACAUGAGGAUCACCCAUGUAUUACCGGGAAGGAGCGCGUAAGGACGCAGGUAGGUCGCUCGGCGUCUGGCCGCAAGGCUGGACGA [#1 Same State - Arginine A Attempt #18 (HarryS)] | 0.0126 µM | 0.0213 µM | 0.0159 µM | 0.0155 µM | 0.0152 µM
UGGUACAUGAGGAUCACCCAUGUUCCAGAUACCAGAUACCCGGUUAUCCCUUGGCAGCUGGUGGUACAUGAGGAUCACCCAUGUG [Exclusion Theophylline A GF15] | 0.0329 µM | 0.0589 µM | 0.044 µM |  | 
GGUAUGUAUUCGGAAACGAAUGCAUACCAACGAGGACCGGUACGGCCGCCACUCGGCGGCGAUCAACAUGAGGAUCACCCAUGUA [Ex Tryptophan A 3] | 0.0262 µM | 0.0437 µM |  |  | 0.0424 µM

— the supplement of paper PMC9170038
